Assay [1] addresses T1, recombinant human IGSF8 extracellular domain tagged by a human Fc region (IGSF8-hFc) (human, UniProt Q969P0 28-579, biotin label in Examples 17, 18 and 28 (site not given)).
T1 construct: also called IGSF8-Fc fusion protein; IGSF8-hFc-biotin; not shown: human Fc region
T1 sequence: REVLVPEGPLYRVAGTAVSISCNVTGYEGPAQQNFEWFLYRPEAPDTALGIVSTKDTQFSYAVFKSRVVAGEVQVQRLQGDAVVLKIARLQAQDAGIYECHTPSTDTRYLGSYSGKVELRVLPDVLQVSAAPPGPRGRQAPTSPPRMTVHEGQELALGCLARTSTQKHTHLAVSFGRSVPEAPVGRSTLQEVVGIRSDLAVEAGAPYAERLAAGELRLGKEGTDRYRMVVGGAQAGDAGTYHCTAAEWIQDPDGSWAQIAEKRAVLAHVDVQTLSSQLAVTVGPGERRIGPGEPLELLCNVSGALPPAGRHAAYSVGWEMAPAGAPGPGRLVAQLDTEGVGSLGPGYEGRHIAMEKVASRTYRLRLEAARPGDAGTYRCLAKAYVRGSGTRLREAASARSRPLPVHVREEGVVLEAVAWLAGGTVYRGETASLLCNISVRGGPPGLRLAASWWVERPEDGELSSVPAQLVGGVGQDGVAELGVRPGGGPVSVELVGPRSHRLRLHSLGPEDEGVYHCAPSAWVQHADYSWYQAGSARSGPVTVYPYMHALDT
The assay can be described thus: SPR, Ab captured. As for the experimental part:
The binding affinities of the L1 and L2 antibodies to IGSF8 recombinant protein were determined by surface plasmon resonance (SPR). Briefly, anti-human Fab antibody was imobilized on acarboxyl-derivatized SPR chip surface, and the antibodies were captured on the resulting surface at 5 μg/ml for 30 seconds.

For assay [2], the target named is T2, human IGSF8 expressed on the cell surface (human, UniProt Q969P0 28-613).
T2 construct: whole, on cells; also called human IGSF8 on CT26 cells; IGSF8 on MC38 cells
T2 sequence (looked up): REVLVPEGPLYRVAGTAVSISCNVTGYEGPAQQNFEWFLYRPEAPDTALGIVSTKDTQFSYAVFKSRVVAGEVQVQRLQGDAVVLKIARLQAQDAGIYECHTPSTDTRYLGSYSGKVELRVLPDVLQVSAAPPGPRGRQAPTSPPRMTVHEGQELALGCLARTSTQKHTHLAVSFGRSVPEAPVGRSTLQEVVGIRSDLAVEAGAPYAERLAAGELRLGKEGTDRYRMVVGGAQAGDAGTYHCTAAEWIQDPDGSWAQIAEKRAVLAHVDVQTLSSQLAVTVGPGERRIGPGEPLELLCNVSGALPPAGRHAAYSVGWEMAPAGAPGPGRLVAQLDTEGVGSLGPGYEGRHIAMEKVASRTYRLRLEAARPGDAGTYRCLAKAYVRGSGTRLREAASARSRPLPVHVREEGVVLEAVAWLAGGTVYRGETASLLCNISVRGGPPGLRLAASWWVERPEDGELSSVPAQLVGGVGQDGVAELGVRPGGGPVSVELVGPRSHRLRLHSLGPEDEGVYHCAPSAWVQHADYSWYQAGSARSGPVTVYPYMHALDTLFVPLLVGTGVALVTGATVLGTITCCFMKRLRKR
The assay can be described thus: FACS on CT26 cells expressing IGSF8. As to the method:
(§1) To test cross reactivity of the L1, and L2 antibodies, CT26 cells with forced human, cynomolgus monkey, or mouse IGSF8 expression were generated by lentiviral delivery. For antibody binding assays based on cell-expressed antigens, 100,000 cells overexpressing the antigen were washed with PBS buffer containing 2% FBS, and then incubated with 100 μL of antibodies or IgG of different concentrations for 30 minutes on ice. Cells were then washed twice with wash buffer, and incubated with 100 μL of 1:100 anti-human Fc-PE antibody for 15 minutes on ice. Cells were washed twice with wash buffer and analyzed on a FACS analyzer (CytoFlex, Beckman). The MFI was plotted vs. antibody concentration. The EC50 cell binding potenct was calculated using nonlinear regression curve fit.

For assay [3], the target named is T3, cynomolgus monkey IGSF8 expressed on CT26 cells (cynomolgus monkey, UniProt Q969P0 28-613 (human entry)).
T3 sequence: T2 sequence (looked up) with A14T, V63I, V125A, M147L, T148M, K167Q, S187A, F554L
The assay can be described thus: FACS on CT26 cells expressing IGSF8. As for the experimental part: as §1

The target of assay [4] is T4, mouse IGSF8 expressed on CT26 cells (mouse, UniProt Q8R366 26-611).
T4 construct: whole, on cells
T4 sequence (looked up): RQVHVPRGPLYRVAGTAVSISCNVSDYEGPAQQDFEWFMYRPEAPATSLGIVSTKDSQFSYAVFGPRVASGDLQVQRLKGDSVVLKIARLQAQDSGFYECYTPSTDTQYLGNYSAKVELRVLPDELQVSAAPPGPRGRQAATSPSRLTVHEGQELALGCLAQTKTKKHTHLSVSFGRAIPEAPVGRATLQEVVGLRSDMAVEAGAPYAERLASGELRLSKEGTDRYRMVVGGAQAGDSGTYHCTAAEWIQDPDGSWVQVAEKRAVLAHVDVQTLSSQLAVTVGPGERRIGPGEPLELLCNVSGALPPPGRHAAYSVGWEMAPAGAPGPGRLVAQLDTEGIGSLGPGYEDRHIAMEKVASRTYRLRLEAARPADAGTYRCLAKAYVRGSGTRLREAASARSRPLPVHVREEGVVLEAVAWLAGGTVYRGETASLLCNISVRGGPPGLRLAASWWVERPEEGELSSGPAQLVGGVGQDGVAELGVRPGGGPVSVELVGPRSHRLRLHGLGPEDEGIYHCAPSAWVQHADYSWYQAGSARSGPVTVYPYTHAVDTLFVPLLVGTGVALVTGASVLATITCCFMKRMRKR
Kind of assay: FACS on CT26 cells expressing mouse IGSF8, anti-human Fc-PE. As for the experimental part:
as §1

Assay [5] has as its target T1, recombinant human IGSF8 extracellular …. Kind of assay: FACS blocking assay: antibody titrated against biotinylated IGSF8-hFc (1 ug/mL) binding to KIR3DL2 on CT26 cells, Streptavidin-PE. As to the method:
CT26 cells with forced ectopic/exogenous human KIR3DL2 expression were incubated with biotinylated IGSF8-hFc recombinant protein (1 μg/mL) in the presence of the antibodies L1-20, L2-10, and a isotype control antibody. The binding of IGSF8-hFc-biotin to the Ct26 cells was determined using Streptavidin-PE by flow cytometry analysis (FIG. 39).

Assay [6] shares this target. Kind of assay: FACS, IGSF8-hFc on CT26 cells, MFI normalized to Thy1.1. As for the experimental part: KLRC1 also contains a ITIM motif in its intracellular domain, and was known to be a inhibitory receptor of NK or CD8⁺ T cells as part of a heterodimer with KLRD1 on the cell surface. […] Specifically, 100,000 CT26 cells overexpressing the antigens (KIRs or KLRs) were washed with PBS buffer containing 2% FBS, and incubated with 100 μL IGSF8 recombinant proteins or antibodies (5 μg/mL) for 30 minutes on ice. Cells were then washed twice with wash buffer, and incubated with 100 μL of 1:100 anti-human Fc-PE antibody for 15 minutes on ice. Cells were washed twice with wash buffer and analyzed on a FACS analyzer (CytoFlex, Beckman). In these experiments, the mean fluorescence intensity (MFI) of IGSF8 binding to different CT26 cells were normalized by the expression of different KLRs on CT26 cells using an anti-thy1.1 mAb via flow cytometry.
(In general: In flow cytometry, cells or beads pass a laser one at a time.)

The target of assay [7] is T4, mouse IGSF8 expressed on CT26 cells. Kind of assay: FACS on CT26 cells expressing IGSF8. As for the experimental part:
as §1

Usually Kd stands for the constant that tells how readily two partners part at equilibrium. What is called koff is the rate constant with which the complex falls apart. For orientation: kon means the second-order rate constant of association. The EC50 is the midpoint of the concentration-response curve.

Substitutions are numbered along the chain they refer to.

B1: L2-10 (antibody, V domains shown)
VH: EVQLVESGGGLEQPGGSLRLSCAASGFTFRDYAMTWVRQAPGKGLEWVSSISGSGGSTYYADSVKGRFTISRDNSKNTLYLQMNSLRAEDTAIYYCARGEYSSGWPSWFDPWGQGTLVTVSS
VL: DIQMTQSPSSLSASVGDRVTITCRASRTVGTFLNWYQQKPGKAPKALILHTSILEGGVPSRFSGSGSGTDFTLTISSLQPEDIATYYCQQSHDVPRTFGQGTKVEIK
notes: also called L2-10-IgG1
In the case of B1, in assay [1], the Kd was found to be 256 pM, the koff came out at 3.68e-05 s⁻¹ and the kon was determined as 144000 M⁻¹ s⁻¹. This molecule displayed an EC50 in assay [2] of 0.145 µg/mL. This molecule came in with an EC50 in assay [3] of 0.041 µg/mL. Also, the binding result in assay [4] is reported as “no binding (tested: 40 ug/ml)”. The “IC50 (read off the curve)” value in assay [5] was roughly 0.4 µg/mL.

B2: L2-01 (antibody, V domains shown)
VH: B1 VH with A24G, S57N
VL: EIVLTQSPSSLSASVGDRVTISCRASRTVGTFLNWYQQRPGKPPQALILGVSILEGGVSSRFSGAGSGTEFSLTISSLQPEDIGTYYCQQSHDVPRTFGQGTKVDLR
notes: Expressed in CHO cells; also called L2 antibody; L2-01-IgG1
Regarding B2, the EC50 worked out at 0.473 µg/mL in assay [2] and 0.212 µg/mL in assay [3]. In assay [4], the binding result is “no binding (tested: 40 ug/ml)”.

B3: KLRD1 alone on CT26 cells (receptor, UniProt Q13241 1-179, looked up)
chain: MAVFKTTLWRLISGTLGIICLSLMSTLGILLKNSFTKLSIEPAFTPGPNIELQKDSDCCSCQEKWVGYRCNCYFISSEQKTWNESRHLCASQKSSLLQLQNTDELDFMSSSQQFYWIGLSYSEEHTAWLWENGSALSQYLFPSFETFNTKNCIAYNPNGNALDESCEDKNRYICKQQLI
notes: whole, on cells; also called KLRD1 monomer
As to B3, the binding result in assay [6] was “no binding”.

B4: L1-20 (antibody, IgG1, V domains shown)
VH: QVQLVESGGGVVQPGRSLRLSCAASGFTFSTYGMHWVRQAPGKGLEWVAVIWDDGSYKYYGDSVKGRFTISRDNSKNTLYLQMNSLRAEDTAVYYCARDGSGWGYAFDIWGQGTLVTVSS
VL: DIQLTQSPSSLSASVGDRVTITCQASQDIEWWLNWYQQKPGKAPKLLIYGSPNLETGVPSRFSGSGSGTDFTFTISSLQPEDIATYYCQQYDSFPYTFGQGTKVEIK
notes: also called L1-20-IgG1
Consider B4, for which, in assay [1], the Kd worked out at 21.4 pM. Also, in assay [1], the koff was 7.02e-06 s⁻¹. In addition, the kon in assay [1] amounted to 329000 M⁻¹ s⁻¹. In addition, the values for the EC50 in assay [2], in assay [3] and in assay [7] were 0.0537 µg/mL, 0.0268 µg/mL and 0.0275 µg/mL, respectively. In assay [5], the “IC50 (read off the curve)” value was roughly 0.3 µg/mL.

B5: L1-01 (antibody, V domains shown)
VH: B4 VH with L115M
VL: DIQLTQSPSSLSASVGDRVTITCQASQDISEYLNWYQHKPGKAPNPLVFDAANLETGVPPRFSATGSGTDFSLTITSLQPEDFATYYCQQYDSFPYTFGQGTRLDIK
notes: Expressed in CHO cells; also called L1 antibody; L1-01-IgG1
B5: the EC50 in assay [2] is 0.206 µg/mL; in assay [3], 0.224 µg/mL; in assay [7] it was 0.538 µg/mL.

B6: KLRC1 alone on CT26 cells (receptor)
chain: not shown
notes: whole, on cells; also called KLRC1 monomer
Regarding B6, in assay [6], the binding result is reported as “no binding”.

Values taken from patent publication US20230303695A1 (SHANGHAI XBH BIOTECHNOLOGY, published 2023).
